US20150299259A1 (FORSCHUNGSZENTRUM JUELICH, published 2015)
Where no end group is shown, it is not given here. [ ]: non-standard residue; d: D form.

T1: PHF-6 (6-mer tau fragment 306VQIVYK311)
T1 construct: Used as fibrillary (aggregated) material; The mirror image selections used its synthetic D-enantiomer (D-PHF-6); also called L-PHF-6; aggregated tau partial peptide
T1 peptide: VQIVYK

B1: peptide having the sequence TTSLQMRLYYPP (peptide)
peptide: TTSLQMRLYYPP
modifications: not fully specified
notes: L-peptide selected by regular phage display against L-PHF-6; also called TL28

Legend:
[1] = molecular target: full-length tau protein (441 amino acids) (UniProt P10636-8 1-441, limits assumed); assay: cell-based or functional assay
[2] = molecular target: T1, PHF-6 (6-mer tau fragment 306VQIVYK311); assay: regular phage display and single-phage ELISA on L-PHF-6 fibrils
Experimental: A phage display kit made by Biolabs was used for the following selections. At the same time, a regular phage display was carried out for the selection of L-peptides. In this regard, obtaining binding motifs after database searches allows conclusions to be drawn concerning previously unknown binding partners in vivo. Moreover, binding partners can later be tested as D-peptides or retro-inverso peptides. After selection, enriched phages were isolated and single-phage ELISA assays were carried out. […] The D-peptides Apt and Knt stem from selections against […]. Against L-PHF-6, a peptide having the sequence […] was selected, which we also analyzed in D-enantiomeric form (TD28) and as a retro-inverso peptide (TD28ri).

Sequence of full-length tau protein (441 amino acids) (P10636 other isoform, or with tags, fused parts or gaps limits assumed): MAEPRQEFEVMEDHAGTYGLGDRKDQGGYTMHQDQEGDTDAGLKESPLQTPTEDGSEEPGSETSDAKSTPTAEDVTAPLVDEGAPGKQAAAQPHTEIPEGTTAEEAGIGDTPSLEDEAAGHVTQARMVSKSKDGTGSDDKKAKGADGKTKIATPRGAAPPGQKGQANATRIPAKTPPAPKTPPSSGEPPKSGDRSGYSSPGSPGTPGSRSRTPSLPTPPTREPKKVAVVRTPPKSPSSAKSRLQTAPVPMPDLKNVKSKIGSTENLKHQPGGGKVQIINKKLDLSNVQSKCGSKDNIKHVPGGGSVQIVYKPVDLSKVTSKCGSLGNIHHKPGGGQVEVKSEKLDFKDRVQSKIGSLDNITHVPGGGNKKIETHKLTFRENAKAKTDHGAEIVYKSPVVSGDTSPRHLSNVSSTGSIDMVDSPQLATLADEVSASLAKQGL

| Binder | DLS particle size Day 1 (Tau + AA + peptide, 1:10) [1] [fold] | DLS particle size Day 8 (Tau + AA + peptide, 1:10) [1] [fold] | binding result [2] |
| --- | --- | --- | --- |
| [dT][dL][dK][dI][dV][dW] [D-enantiomeric peptide tlkivw described by Sievers et al.] | 6 | 6 |  |
| B1 | 5 | 4 | binds |
